According to publication PMC3503730, “Enhanced thermostability of a Rhizopus chinensis lipase by in vivo recombination in Pichia pastoris” (Microbial Cell Factories, 2012):

Substrate: CCCCCCCCCCCCCCCC(=O)Oc1ccc([N+](=O)[O-])cc1
Assay: p-nitrophenol release, Lineweaver-Burk
Type: biochemical, Rhizopus microsporus
Settings: emulsified substrate, 40°C, pH 8.5, printed Km unit is a misprint, printed kcat/Km 6.22 × 10^4 M^-1 s^-1 implies mM
Excerpt: p-nitrophenol release, Lineweaver-Burk on r27RCL

B1: r27RCL (Rhizopus microsporus var. chinensis) (protein)
chain: DTETVGGMTLDLPENPPPIPATSTAPSSDSGEVVTATAAQIKELTNYAGVAATAYCRSVVPGTKWDCKQCLKYVPDGKLIKTFTSLLTDTNGFILRSDAQKTIYVTFRGTNSFRSAITDMVFTFTDYSPVKGAKVHAGFLSSYNQVVKDYFPVVQDQLTAYPDYKVIVTGHSLGGAQALLAGMDLYQREKRLSPKNLSIYTVGCPRVGNNAFAYYVDSTGIPFHRTVHKRDIVPHVPPQAFGYLHPGVESWIKEDPADVQICTSNIETKQCSNSIVPFTSIADHLTYFGINEGSCL
notes: proRCL gene in pPIC9K, secreted from Pichia pastoris GS115, purified on SP-Sepharose and Phenyl-Sepharose
  kcat: 18.9 s⁻¹
  kcat/Km: 62200 M⁻¹ s⁻¹
